Reference: patent US20260176373A1 (BRIGHT BIOLOGICS, published 2026)

Columns and labels:
[1] = biological target: T1, human TROP2 (Trophoblast cell-surface antigen 2) (human, UniProt P09758 27-323); assay: flow cytometry whole cell binding, NCI-H1975 cells (endogenous TROP2)
T1 construct: whole, on cells; also called TACSTD2; h-TROP2
T1 sequence (looked up): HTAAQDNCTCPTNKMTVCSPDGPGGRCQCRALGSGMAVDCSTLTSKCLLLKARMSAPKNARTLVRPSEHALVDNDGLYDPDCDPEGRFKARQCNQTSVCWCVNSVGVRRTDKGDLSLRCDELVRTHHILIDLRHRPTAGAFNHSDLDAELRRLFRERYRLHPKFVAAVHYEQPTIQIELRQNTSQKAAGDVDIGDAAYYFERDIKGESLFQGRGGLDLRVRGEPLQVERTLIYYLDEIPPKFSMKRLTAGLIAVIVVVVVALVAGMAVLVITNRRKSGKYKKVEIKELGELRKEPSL

[2] = biological target: T1, human TROP2 (Trophoblast cell-surface …); assay: flow cytometry whole cell binding, Colo205 cells (endogenous TROP2)
[3] = biological target: T1, human TROP2 (Trophoblast cell-surface …); assay: flow cytometry whole cell binding, CHO-h-TROP2 stable cells
Description: (§1) Binding of bivalent anti-TROP2 VHH-Fc clones to human TROP2 in human TROP2 stably transfected CHO cells (CHO-h-TROP2 stable cells) were determined by flow cytometry whole cell binding (WCB) assays. Briefly, antibodies were incubated at different concentrations with CHO-h-TROP2 stable cells (0.2×10⁶/ml) in 96-well plates (100 μl/well) in FACS buffer for 30 min. After washing, Alexa Fluor 488 conjugated anti-human IgG Fc secondary antibody was added, and incubated for 30 min. After washing, MFI was measured using CytoFlex by gating live cell population with FITC channel. EC50 of binding was calculated using GraphPad Prism7.0.
Humanization of Alpaca clone 1H11 was carried out using the same strategy. Ten humanized VHH-Fc variants were made with minor difference in Framework 2. The binding activity of humanized variants to human TROP2 was examined using whole cell binding assays.

[4] = biological target: T1, human TROP2 (Trophoblast cell-surface …); assay: as above; remark: listed apart in the source
[5] = biological target: human TROP2 (Trophoblast cell-surface antigen 2) (human) (UniProt P09758); assay: flow cytometry, HCC202 cells, antibody at 100 nM
[6] = biological target: human TROP2 (Trophoblast cell-surface antigen 2) (human) (UniProt P09758); assay: flow cytometry whole cell binding, Colo205 cells (endogenous TROP2)
[7] = biological target: human TROP2 (Trophoblast cell-surface antigen 2) (human) (UniProt P09758); assay: flow cytometry whole cell binding, SKBR3 cells
[8] = biological target: human TROP2 (Trophoblast cell-surface antigen 2) (human) (UniProt P09758); assay: flow cytometry whole cell binding, NCI-H1975 cells (endogenous TROP2)
[9] = biological target: human TROP2 (Trophoblast cell-surface antigen 2) (human) (UniProt P09758); assay: flow cytometry, NCI-H441 cells, Immu-132 at 100 nM
[10] = biological target: human TROP2 (Trophoblast cell-surface antigen 2) (human) (UniProt P09758); assay: flow cytometry, SKOV3 cells
[11] = biological target: human TROP2 (Trophoblast cell-surface antigen 2) (human) (UniProt P09758); assay: flow cytometry, SKBR3 cells, antibody at 100 nM
[12] = biological target: human TROP2 (Trophoblast cell-surface antigen 2) (human) (UniProt P09758); assay: cell-based or functional assay
[13] = biological target: human TROP2 (Trophoblast cell-surface antigen 2) (human) (UniProt P09758); assay: flow cytometry whole cell binding, HCC202 cells
[14] = biological target: human TROP2 (Trophoblast cell-surface antigen 2) (human) (UniProt P09758); assay: flow cytometry whole cell binding, h-TROP2 stably transfected CHO cells
[15] = biological target: human TROP2 (Trophoblast cell-surface antigen 2) (human) (UniProt P09758); assay: flow cytometry whole cell binding, NCI-H441 cells
[16] = biological target: human TROP2 (Trophoblast cell-surface antigen 2) (human) (UniProt P09758); assay: flow cytometry, AU-565 cells, Immu-132 at 100 nM
[17] = biological target: human TROP2 (Trophoblast cell-surface antigen 2) (human) (UniProt P09758); assay: flow cytometry whole cell binding, CHO-h-TROP2 stable cells
[18] = biological target: human TROP2 (Trophoblast cell-surface antigen 2) (human) (UniProt P09758); assay: flow cytometry, OE-19 cells
[19] = biological target: human TROP2 (Trophoblast cell-surface antigen 2) (human) (UniProt P09758); assay: flow cytometry whole cell binding, CHO-h-TROP2 stable cells; remark: listed apart in the source
[20] = biological target: T2, human TROP2 (Trophoblast cell-surface antigen 2) (human, UniProt P09758 27-323); assay: flow cytometry whole cell binding, SKBR3
T2 chain: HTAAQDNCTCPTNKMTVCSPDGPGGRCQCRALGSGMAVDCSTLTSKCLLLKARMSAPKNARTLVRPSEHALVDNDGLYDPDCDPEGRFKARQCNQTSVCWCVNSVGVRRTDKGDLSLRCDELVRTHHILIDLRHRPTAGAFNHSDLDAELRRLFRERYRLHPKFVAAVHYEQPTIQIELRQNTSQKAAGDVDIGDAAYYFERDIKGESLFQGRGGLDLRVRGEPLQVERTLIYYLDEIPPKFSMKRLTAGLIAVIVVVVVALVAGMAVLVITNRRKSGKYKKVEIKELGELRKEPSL

[21] = biological target: T1, human TROP2 (Trophoblast cell-surface …); assay: flow cytometry whole cell binding, h-TROP2 stably transfected CHO cells
Description: as §1

[22] = biological target: T1, human TROP2 (Trophoblast cell-surface …); assay: flow cytometry whole cell binding, CHO-h-TROP2 stable cells; remark: listed apart in the source
Description: as §1
The same strategy was carried out for the humanization of Alpaca clone 4C6. Ten humanized VHH-Fc variants were made for 4C6 with minor difference in Framework 2 and Framework 3. Whole cell binding to CHO-h-TROP2 stable cells was performed to compare the binding affinities of these humanized VHH-Fc variants to the parental Alpaca clone 4C6.

B1: 1H11-hv10 (humanized VHH-Fc variant of 1H11, Example 5) (antibody, V domains shown)
VH: EVQLVESGGGLVQPGGSLRLSCAASGGTFSRYIMSWFRQAPGKEREFVSAISGSGGSTYYADSVKGRFTISRDNSKNTLYLQMNSLRAEDTAVYYCASTFYSTTYVAQRDARDYAYWGQGTQVTVSS
notes: hinge not specified
- EC50 [1]: 3.12 nM
- EC50 [2]: 1.71 nM
- EC50 [3]: 2.29 nM

B2: 1H11-hv10_Fc (antibody, V domains shown)
VH: EVQLVESGGGLVQPGGSLRLSCAASGGTFSRYIMSWFRQAPGKEREFVSAISGSGGSTYYADSVKGRFTISRDNSKNTLYLQMNSLRAEDTAVYYCASTFYSTTYVAQRDARDYAYWGQGTQVTVSS
notes: monospecific bivalent VHH-Fc with C220S mutation in the hinge region; also called monospecific anti-TROP2 (1H11-hv10)
- EC50 [4]: 2.38 nM

B3: Immu-132 (antibody, INN chains, looked up, V domains shown)
VH: QVQLQQSGSELKKPGASVKVSCKASGYTFTNYGMNWVKQAPGQGLKWMGWINTYTGEPTYTDDFKGRFAFSLDTSVSTAYLQISSLKADDTAVYFCARGGFGSSYWYFDVWGQGSLVTVSS
VL: DIQLTQSPSSLSASVGDRVSITCKASQDVSIAVAWYQQKPGKAPKLLIYSASYRYTGVPDRFSGSGSGTDFTLTISSLQPEDFAVYYCQQHYITPLTFGAGTKVEIKR
modifications: unconjugated
- MFI [5]: 200000 MFI
- EC50 [6]: 1.15 nM
- EC50 [7]: 128 nM
- EC50 [8]: 3.61 nM
- MFI [9]: 200000 MFI
- MFI [10]: 50000 MFI
- MFI [11]: 90000 MFI
- IC50, nM, Killing of HCC202 cells by 2nd Ab-MMAE [12]: 0.19 nM
- IC50, nM, Killing of NCI-H441 cells by 2nd Ab-MMAE [12]: 0.13 nM
- IC50, nM, Killing of SKBR3 cells by 2nd Ab-MMAE [12]: 0.452 nM
- EC50 [13]: 4.02 nM
- EC50 [14]: 2.2 nM
- EC50 [15]: 1.74 nM
- MFI [16]: 90000 MFI
- EC50 [17]: 0.84 nM
- MFI [18]: 30000 MFI
- EC50 [19]: 1.16 nM

B4: Immu-132_MMAE (protein, INN chains, looked up)
VH: QVQLQQSGSELKKPGASVKVSCKASGYTFTNYGMNWVKQAPGQGLKWMGWINTYTGEPTYTDDFKGRFAFSLDTSVSTAYLQISSLKADDTAVYFCARGGFGSSYWYFDVWGQGSLVTVSS
VL: DIQLTQSPSSLSASVGDRVSITCKASQDVSIAVAWYQQKPGKAPKLLIYSASYRYTGVPDRFSGSGSGTDFTLTISSLQPEDFAVYYCQQHYITPLTFGAGTKVEIK
modifications: vc-MMAE payload conjugate
- IC50 (nM) in ADC mediated killing, NCI-H441 cells, Immu-132 MMAE DAR3.5 [12]: 0.047 nM
- IC50 (nM) in ADC mediated killing, NCI-H441 cells, Immu-132 MMAE DAR4.0 [12]: 0.04 nM
- IC50 (nM) in ADC mediated killing, NCI-H441 cells, Immu-132 MMAE DAR4.4 [12]: 0.033 nM
- IC50, nM, in killing assay, A431 cells [12]: 0.611 nM
- IC50, nM, in killing assay, AU-565 cells [12]: 0.0489 nM
- IC50, nM, in killing assay, Colo205 cells [12]: 0.45 nM
- IC50, nM, in killing assay, N87 cells [12]: 0.092 nM
- IC50, nM, in killing assay, NCI-H441 cells [12]: 0.054 nM
- IC50, nM, in killing assay, NCI-H1975 cells [12]: 0.25 nM
- IC50, nM, in killing assay, OE-19 cells [12]: 1.1 nM
- IC50, nM, in killing assay, SK-OV3 cells [12]: 1.44 nM
- IC50, nM, in killing assay, SKBR3 cells [12]: 0.0362 nM
- IC50, nM, in killing assay, T-47D cells [12]: 0.21 nM

B5: anti-TROP2 VHH-Fc clone Alpaca 1H11 (antibody, human IgG1, V domains shown)
VH: LVQLVESGGGLVQAGDSLRLSCTASGGTFSRYIIGWFRQAPGKEREFVTTISGSGGSTYYADSVKGRFTISRDNAKNTVFLQMNSLKPEDTAVYYCASTFYSTTYVAQRDARDYAYWGQGTQVTVSS
notes: domain: hinge region and constant domains (CH2 and CH3); bivalent VHH-Fc, human IgG1 Fc
- EC50 [1]: 2.59 nM
- EC50 [2]: 1.53 nM
- EC50 [20]: 2.14 nM
- EC50 [21]: 1.84 nM
- EC50 [3]: 1.57 nM

B6: 1H11-hv7 (humanized VHH-Fc variant of 1H11) (antibody, V domains shown)
VH: EVQLVESGGGLVQPGGSLRLSCAASGGTFSRYIIGWFRQAPGKEREFVSTISGSGGSTYYADSVKGRFTISRDNSKNTLYLQMNSLRAEDTAVYYCASTFYSTTYVAQRDARDYAYWGQGTQVTVSS
- EC50 [1]: 2.42 nM
- EC50 [2]: 1.19 nM
- EC50 [3]: 2.59 nM

B7: 1H11-hv9 (humanized VHH-Fc variant of 1H11) (antibody, V domains shown)
VH: EVQLVESGGGLVQPGGSLRLSCAASGGTFSRYIMSWFRQAPGKEREFVSTISGSGGSTYYADSVKGRFTISRDNSKNTLYLQMNSLRAEDTAVYYCASTFYSTTYVAQRDARDYAYWGQGTQVTVSS
- EC50 [1]: 3.04 nM
- EC50 [2]: 1.29 nM
- EC50 [3]: 2.73 nM

B8: 1H11-hv6 (humanized VHH-Fc variant of 1H11) (antibody, V domains shown)
VH: EVQLVESGGGLVQPGGSLRLSCAASGGTFSRYIIGWFRQAPGKEREFVTTISGSGGSTYYADSVKGRFTISRDNSKNTLYLQMNSLRAEDTAVYYCASTFYSTTYVAQRDARDYAYWGQGTQVTVSS
- EC50 [1]: 2.7 nM
- EC50 [2]: 1.22 nM
- EC50 [3]: 2.18 nM

B9: 1H11-hv8 (humanized VHH-Fc variant of 1H11, Example 5) (antibody, V domains shown)
VH: EVQLVESGGGLVQPGGSLRLSCAASGGTFSRYIMGWFRQAPGKEREFVSTISGSGGSTYYADSVKGRFTISRDNSKNTLYLQMNSLRAEDTAVYYCASTFYSTTYVAQRDARDYAYWGQGTQVTVSS
notes: hinge not specified
- EC50 [1]: 2.54 nM
- EC50 [2]: 1.29 nM
- EC50 [3]: 1.97 nM

B10: 4C6-hv10 (humanized VHH-Fc variant of 4C6) (antibody, V domains shown)
VH: EVQLVESGGGLVQPGGSLRLSCAASGHPFAMYAMGWFRQAPGKEREFVAAIAGNGGSTSYADSVKGRFTISRDNSKNTLYLQMNSLRAEDTAVYYCAAAGGTFYSGTTVATRSSHYDYWGQGTQVTVSS
- EC50 [22]: 1.46 nM

B11: anti-TROP2 VHH-Fc clone Alpaca 4C6 (antibody, human IgG1, V domains shown)
VH: QVQVVESGGGLVQAGGSQRLSCAVSGHPFAMYAMGWFRQAPGKEREFVAAIAGNGGSTSYADSVKGRFTISRDYAKNTNYLQMNSLEPEDTAVYYCAAAGGTFYSGTTVATRSSHYDYWGQGTQVTVSS
notes: domain: hinge region and constant domains (CH2 and CH3); bivalent VHH-Fc, human IgG1 Fc; also called 4C6 Alpaca
- EC50 [20]: 1.58 nM
- EC50 [21]: 1.37 nM
- EC50 [22]: 0.97 nM

B12: 4C6-hv4 (humanized VHH-Fc variant of 4C6) (antibody, V domains shown)
VH: EVQLVESGGGLVQPGGSLRLSCAASGHPFAMYAMGWFRQAPGKEREFVSAIAGNGGSTSYADSVKGRFTISRDNSKNTLYLQMNSLRAEDTAVYYCAAAGGTFYSGTTVATRSSHYDYWGQGTQVTVSS
- EC50 [22]: 2.6 nM

B13: 4C6-hv9 (humanized VHH-Fc variant of 4C6) (antibody, V domains shown)
VH: EVQLVESGGGLVQPGGSLRLSCAASGHPFAMYAMGWFRQAPGKEREFVSAIAGNGGSTYYADSVKGRFTISRDNSKNTLYLQMNSLRAEDTAVYYCAAAGGTFYSGTTVATRSSHYDYWGQGTQVTVSS
- EC50 [22]: 2.32 nM
